In this data set the test system is Proteinase-K. The data set can be described thus: Proteinase-K protection test of Beta Lactamase (BLA) preparations, Nitrocefin Assay (FIGS. 3B, 3C). The class given is biochemical. The settings on record: PK overnight, 0.1 mg/ml in 1x PBS, 37° C.; 250 μg/ml nitrocefin, absorbance 486 nm.

Experimental: To verify enzyme encapsulation and activity, three separate preparations were incubated with and without Proteinase-K (PK). […] In this example, the three preparations were exposed to Proteinase-K (Thermo Scientific Pierce Proteinase K) enzyme overnight at a concentration of 0.1 mg/ml in 1× phosphate buffered saline (PBS) solution at 37° C. Enzyme activity assay was done on the samples post incubation with PK using a Nitrocefin Assay (BLA hydrolysis of nitrocefin produces a shift of UV absorption inside the visible light spectrum from intact nitrocefin (˜380 nm) to degraded nitrocefin (˜500 nm) allowing visual detection of BLA activity on a macroscopic level). Each reaction was 100 μl in total and contained 250 μg/ml nitrocefin as substrate. Absorbance was measured at 486 nm.

As to “Beta Lactamase (BLA) [bare unencapsulated enzyme]”, the “BLA enzyme activity when exposed to Proteinase-K (PK)” value is “loses all activity”.
